The values below come from patent publication US20230279131A1 (published 2023).

Assay [1] concerns the target T1, D2 domain of human IL2Rγ extracellular domain expressed with a C-terminal myc-myc-hexahistidine tag (human).
T1 construct: whole entry is the tagged construct
T1 chain: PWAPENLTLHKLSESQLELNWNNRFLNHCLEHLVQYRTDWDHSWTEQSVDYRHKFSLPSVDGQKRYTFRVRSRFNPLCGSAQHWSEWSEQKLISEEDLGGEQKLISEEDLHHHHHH
The assay can be described thus: SPR Biacore 4000, mAb captured on anti-hFc, 25°C. As for the experimental part: (§1) Equilibrium dissociation constants (KD values) for IL-2Rγ binding to purified anti-IL2Rγ monoclonal antibodies were determined using a Biacore 4000 instrument equipped with a real-time surface plasmon resonance biosensor. All binding studies were performed in 10 mM HEPES, 150 mM NaCl, 3 mM EDTA, and 0.05% v/v Surfactant Tween-20, pH 7.4 (HBS-ET) running buffer at 25° C. and 37° C. The Biacore sensor surface was first derivatized by amine coupling with a monoclonal mouse anti-human Fc antibody (GE, #BR-1008-39) to capture anti-IL2Rγ monoclonal antibodies.
For orientation: SPR reads the build-up and loss of mass on a sensor chip optically.

Assay [2] concerns the target T1, D2 domain of human IL2Rγ extracellular …. The assay can be described thus: SPR Biacore 4000, mAb captured on anti-hFc, 37°C. The procedure:
as §1

Assay [3] concerns the target T2, human IL-2Rγ expressed on cells (human, UniProt P31785 23-369).
T2 construct: whole, on cells; endogenous receptor on human cells; also called IL-2Rgamma; CD132
T2 sequence (looked up): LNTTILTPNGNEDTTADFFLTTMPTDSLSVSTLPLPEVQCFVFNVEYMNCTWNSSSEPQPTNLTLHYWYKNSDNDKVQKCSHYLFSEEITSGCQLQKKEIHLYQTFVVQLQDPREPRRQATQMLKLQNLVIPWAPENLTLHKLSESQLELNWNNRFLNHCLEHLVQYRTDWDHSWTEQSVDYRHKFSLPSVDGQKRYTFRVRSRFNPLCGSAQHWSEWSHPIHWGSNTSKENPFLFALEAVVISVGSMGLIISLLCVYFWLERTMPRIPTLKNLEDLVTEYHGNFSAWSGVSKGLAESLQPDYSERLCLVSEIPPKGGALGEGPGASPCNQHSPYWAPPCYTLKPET
Nature of the assay: flow cytometry on NK-92 cells, antibody at 10 µg/ml; high end of the range, tied to H4H12889P by Table 9-1. On the technique in general: A flow cytometer gives signals particle by particle.

Assay [4] addresses T2, human IL-2Rγ expressed on cells. The assay can be described thus: flow cytometry on Jurkat cells, antibody at 10 µg/ml; high end of the range, tied to H4H12889P by Table 9-1.
Assay [5] has the same target. Nature of the assay: flow cytometry on NK-92 cells, antibody at 10 µg/ml; low end of the range, tied to H4H12859P by Table 9-1.
In assay [6] the target is T3, Human IL2Rγ extracellular domain expressed with a C-terminal myc-myc-hexahistidine tag (human).
T3 construct: also called hIL-2Rg-MMH; hIL-2RG-MMH
T3 chain: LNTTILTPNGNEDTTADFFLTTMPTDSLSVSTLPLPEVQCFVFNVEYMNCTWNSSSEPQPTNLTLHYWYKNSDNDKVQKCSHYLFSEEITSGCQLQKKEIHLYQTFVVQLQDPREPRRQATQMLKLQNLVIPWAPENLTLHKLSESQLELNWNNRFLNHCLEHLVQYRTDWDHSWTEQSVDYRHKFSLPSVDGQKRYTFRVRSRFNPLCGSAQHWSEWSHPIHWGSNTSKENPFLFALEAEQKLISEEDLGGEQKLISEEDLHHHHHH
Nature of the assay: SPR Biacore 4000, mAb captured by anti-hFc, HBS-ET, 25C. The procedure:
as §1

Assay [7] concerns the target T3, Human IL2Rγ extracellular domain …. The assay can be described thus: SPR Biacore 4000, mAb captured by anti-hFc, HBS-ET, 37C. As for the experimental part:
as §1

Assay [8] concerns the target T4, D1 domain of human IL-2Rγ extracellular domain expressed with a C-terminal myc-myc-hexahistidine tag (human).
T4 construct: whole entry is the tagged construct
T4 chain: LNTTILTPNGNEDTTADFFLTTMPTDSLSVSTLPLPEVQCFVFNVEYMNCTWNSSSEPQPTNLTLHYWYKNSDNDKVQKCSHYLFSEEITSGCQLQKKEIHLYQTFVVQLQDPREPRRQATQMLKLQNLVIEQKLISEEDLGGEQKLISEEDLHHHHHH
The assay can be described thus: SPR Biacore 4000, mAb captured on anti-hFc, 25°C. As for the experimental part:
as §1

Assay [9] deals with T4, D1 domain of human IL-2Rγ extracellular …. Nature of the assay: SPR Biacore 4000, mAb captured on anti-hFc, 37°C. As for the experimental part:
as §1

The target of assay [10] is T2, human IL-2Rγ expressed on cells. The assay can be described thus: flow cytometry on NK-92 cells, antibody at 10 µg/ml; high end of the range, tied to 'H4H13841P' (taken as H4H13541P) by Table 9-2.
The target is the same in assay [11]. Nature of the assay: flow cytometry on NK-92 cells, antibody at 10 µg/ml; low end of the range, tied to H4H13538P by Table 9-2.

B1: H4H12874P (antibody, human IgG4 S228P, kappa, V domains shown)
VH: QVQLVESGGGVVQPGRSLRLSCAASGFNFRNFGMHWVRQAPGKGLEWVAGILYDGSSKYYADSVKDRFTISRDNSKNTLFLQMNSLRAEDTAMYYCAKEEDTAMVPFDSWGPGTLVTVSS
VL: DIQLTQSPSFLSASVGDRVTITCWASQGISSYLAWYQQKPGKAPTLLIYAASTLQSGVPSRFSGSGSGTEFTLTISSLQPEDFASYYCQQLKSYPLTFGGGTKVEIKR
notes: anti-IL2Rγ mAb expressed with human IgG4 Fc
For B1, the “100 nM Ag Bound” value stood at 10 RU in assay [1] and 2 RU in assay [2].

B2: H4H12889P (antibody, human IgG4 S228P, kappa, V domains shown)
VH: EVQLVESGGGLVQPGGSLRLSCAASGFIFSSYEMHWVRQAPGKGLEWISYISSSGTTIYYADSVKGRFTISRDNAKNSLYLHMNSLRAEDTAVYYCTRARITGTFDVFDIWGQGTMVTVSS
VL: DIQMTQSPSSLSASVGDRVTITCRASQSISSYLNWYQQKPGKAPKLLIFAASNLQSGVPSRFSGSRSGTDFTLTISSLQPEDFATYYCQQNYNIPYTFGQGTKLEIKR
notes: anti-IL2Rγ human antibody, human IgG4 Fc; also called REGN7257
Consider B2, for which the “binding ratio (sample MFI over unstained MFI)” value (shortened to “binding ratio”) was found to be 94 ratio in assay [3] and 19 ratio in assay [4].

B3: H4H12859P (antibody, human IgG4 S228P, kappa, V domains shown)
VH: QVQLVQSGAEVKKPGASVRVSCKASGYTFTDYDIHWVRQAPGHGLEWMGWINPNSGGTNYAQKFQGRVTMTRDTSISTVYMDLSRLRSDDTAVYYCARADYSSSYYYYGMDVWGQGTTVTVSS
VL: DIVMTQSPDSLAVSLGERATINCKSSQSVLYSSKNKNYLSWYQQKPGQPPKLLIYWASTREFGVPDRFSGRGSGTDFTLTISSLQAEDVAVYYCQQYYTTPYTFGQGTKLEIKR
notes: anti-IL2Rγ human antibody, human IgG4 Fc
As for B3, the “binding ratio” value in [5] was 1 ratio.

B4: H4H12927P2 (antibody, human IgG4 S228P, kappa, V domains shown)
VH: EVQLVESGGGVVRPGGSLRLSCATSGFTFDDYGMSWVRQVPGKGLEWVSSVNRNGGTTDYADSVKGRFTISRDNAKRSLFLQMNSLRAEDTALYHCATGELFFDYWGQGTLVTVSS
VL: not shown
notes: as for B1
Regarding B4, the results for the “100 nM Ag Bound” value in assay [1] and in assay [2] were 14 RU and 2 RU, respectively.

B5: H4H12927P2 (antibody, human IgG4 S228P, kappa, V domains shown)
VH: B4 VH
VL: not shown
notes: anti-IL2Rgamma monoclonal antibody expressed with human IgG4 Fc
As to B5, the “100 nM Ag Bound” value in assay [6] stood at 18 RU; in assay [7], 5 RU.

B6: H4H12926P2 (antibody, human IgG4 S228P, kappa, V domains shown)
VH: QVQLQQSGPGLVKPSQTLSLTCAISGDSVSSNIAAWNWIRLSPSRGLEWLGRTFFRSTWFYDYSLSVKGRITINPDTSKNQFSLHLNSVTPEDAAVYYCARTGRRWSLDYWGQGTLVTVSS
VL: not shown
notes: as for B1
As for B6, the “100 nM Ag Bound” value is 8 RU in assay [8] and 2 RU in assay [9].

B7: H4H12926P2 (antibody, human IgG4 S228P, kappa, V domains shown)
VH: B6 VH
VL: not shown
notes: as for B5
For B7, the “100 nM Ag Bound” value came to 13 RU in assay [6] and 2 RU in assay [7].

B8: H4H13541P (antibody, human IgG4 S228P, kappa, V domains shown)
VH: EVQLVESGGGVVRPGGSLRLSCAASGFIFDDYDMSWVRQPPGRGLEWVSGIDWFGGTRGYADSMKGRFTISRDNAKNSLYLQMNSLRVEDTAFYYCARGGAIVGAVTPFDYWGQGTLVTVSS
VL: DIQMTQSPSSLSASVGNRVTLSCRASQSINTYLSWYQQRPGKAPKLLIYAASSLQSGVPSRFSGSGAGTDFTLTISSLQPEDFATYYCQQSYSAPLTFGGGTKVEIKR
notes: anti-IL2Rγ human antibody, human IgG4 Fc; also called H4H13841P
Regarding B8, in [10], the “binding ratio” value came to 37 ratio.

B9: H4H13538P (antibody, human IgG4 S228P, kappa, V domains shown)
VH: EVQLVESGGGLVQPGGSLGLSCAASGFTFSNYAMSWVRQAPGKGLEWVSAVSGGGGGTYYADSVKGRFTISRDNSKNTVLLQMNSLRAEDTAVYYCARGRTGGLDYWGPGTLVTVSS
VL: DVVMTQSPLSLPVIFGQPASISCRSSQSLVDSDGNTYLNWLQQRPGQSPRRLIYEVSNRDSGVPDRFSGSGSGTDFTLTISRVEAEDVGIYYCMQGTRWPPTFGGGTKVEIKR
notes: as for B3
B9: the “binding ratio” value in assay [11] was 1 ratio.
